Experiments:
cryo-EM structure = target: the molecule itself; experiment: cryo-EM structure
[1] = target: T1, P22 portal protein gp1 (bacteriophage P22), P26744; experiment: cryo-EM structure; conditions: remark: other sources report otherwise
T1 chain: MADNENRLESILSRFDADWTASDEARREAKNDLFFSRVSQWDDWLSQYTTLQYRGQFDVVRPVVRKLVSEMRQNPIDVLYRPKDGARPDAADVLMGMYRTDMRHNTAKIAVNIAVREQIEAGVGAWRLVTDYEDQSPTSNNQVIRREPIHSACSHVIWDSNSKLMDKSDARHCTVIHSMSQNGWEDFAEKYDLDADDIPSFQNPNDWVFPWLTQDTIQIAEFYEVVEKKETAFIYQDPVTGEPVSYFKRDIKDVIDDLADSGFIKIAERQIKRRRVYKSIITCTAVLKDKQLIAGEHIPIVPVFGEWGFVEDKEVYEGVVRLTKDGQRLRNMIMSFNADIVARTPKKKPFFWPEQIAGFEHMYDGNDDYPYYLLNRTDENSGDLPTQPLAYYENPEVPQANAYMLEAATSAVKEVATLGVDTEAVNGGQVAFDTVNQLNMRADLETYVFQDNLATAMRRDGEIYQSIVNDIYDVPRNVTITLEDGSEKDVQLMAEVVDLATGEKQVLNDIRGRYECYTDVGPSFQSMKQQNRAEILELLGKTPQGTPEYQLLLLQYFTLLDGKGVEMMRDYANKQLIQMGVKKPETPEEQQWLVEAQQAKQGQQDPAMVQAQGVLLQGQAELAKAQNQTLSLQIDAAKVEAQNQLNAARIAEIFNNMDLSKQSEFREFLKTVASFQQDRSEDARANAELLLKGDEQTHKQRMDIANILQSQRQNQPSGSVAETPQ

Binder | stoichiometry N (cryo-EM structure) | stoichiometry N [1]
P22 tail needle gp26 (natural protein, bacteriophage P22) MADPSLNNPVVIQATRLDASILPRNVFSKSYLLYVIAQGTDVGAIAGKANEAGQGAYDAQVKNDEQDVELADHEARIKQLRIDVDDHESRITANTKAITALNVRVTTAEGEIASLQTNVSALDGRVTTAENNISALQADYVSKTATTSQSLASPLNVTTSYSVGGKKVLGARQTGWTAATGTANKGVFDADLTFAVSDTYTQSEIQAIANALITERRRTKALEDALRAHGLID | 3 | 
P22 head-to-tail adapter gp4 (natural protein, bacteriophage P22) MQIKTKGDLVRAALRKLGVASDATLTDVEPQSMQDAVDDLEAMMAEWYQDGKGIITGYVFSDDENPPAEGDDHGLRSSAVSAVFHNLACRIAPDYALEATAKIIATAKYGKELLYKQTAISRAKRAPYPSRMPTGSGNSFANLNEWHYFPGEQNADSTTPHDEGNG | 12 | 
P22 portal protein gp1, P26744 1-725 (natural protein) MADNENRLESILSRFDADWTASDEARREAKNDLFFSRVSQWDDWLSQYTTLQYRGQFDVVRPVVRKLVSEMRQNPIDVLYRPKDGARPDAADVLMGMYRTDMRHNTAKIAVNIAVREQIEAGVGAWRLVTDYEDQSPTSNNQVIRREPIHSACSHVIWDSNSKLMDKSDARHCTVIHSMSQNGWEDFAEKYDLDADDIPSFQNPNDWVFPWLTQDTIQIAEFYEVVEKKETAFIYQDPVTGEPVSYFKRDIKDVIDDLADSGFIKIAERQIKRRRVYKSIITCTAVLKDKQLIAGEHIPIVPVFGEWGFVEDKEVYEGVVRLTKDGQRLRNMIMSFNADIVARTPKKKPFFWPEQIAGFEHMYDGNDDYPYYLLNRTDENSGDLPTQPLAYYENPEVPQANAYMLEAATSAVKEVATLGVDTEAVNGGQVAFDTVNQLNMRADLETYVFQDNLATAMRRDGEIYQSIVNDIYDVPRNVTITLEDGSEKDVQLMAEVVDLATGEKQVLNDIRGRYECYTDVGPSFQSMKQQNRAEILELLGKTPQGTPEYQLLLLQYFTLLDGKGVEMMRDYANKQLIQMGVKKPETPEEQQWLVEAQQAKQGQQDPAMVQAQGVLLQGQAELAKAQNQTLSLQIDAAKVEAQNQLNAARIAEIFNNMDLSKQSEFREFLKTVASFQQDRSEDARANAELLLKGDEQTHKQRMDIANILQSQRQNQPSGSVAETPQ |  | 12

From PMC10842050 (Journal of molecular biology, 2023)
